Experimental data: patent publication US20200247894A1 (Regeneron, published 2020)

Experiments:
[1] = biological target: T1, Human IL2Rγ extracellular domain expressed with a C-terminal myc-myc-hexahistidine tag (human); assay: SPR Biacore 4000, mAb captured by anti-hFc, HBS-ET, 25C; 25 C
T1 construct: also called hIL-2Rg-MMH; hIL-2RG-MMH
T1 chain: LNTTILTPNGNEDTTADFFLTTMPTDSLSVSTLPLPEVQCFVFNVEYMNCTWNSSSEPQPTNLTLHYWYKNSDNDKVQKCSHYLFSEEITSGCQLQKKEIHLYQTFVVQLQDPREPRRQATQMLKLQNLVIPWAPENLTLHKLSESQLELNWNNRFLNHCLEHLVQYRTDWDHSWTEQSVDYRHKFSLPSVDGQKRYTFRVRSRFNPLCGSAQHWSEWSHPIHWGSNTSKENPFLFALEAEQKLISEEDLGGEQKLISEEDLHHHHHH
Protocol: Equilibrium dissociation constants (KD values) for IL-2Rγ binding to purified anti-IL2Rγ monoclonal antibodies were determined using a Biacore 4000 instrument equipped with a real-time surface plasmon resonance biosensor. All binding studies were performed in 10 mM HEPES, 150 mM NaCl, 3 mM EDTA, and 0.05% v/v Surfactant Tween-20, pH 7.4 (HBS-ET) running buffer at 25° C. and 37° C. The Biacore sensor surface was first derivatized by amine coupling with a monoclonal mouse anti-human Fc antibody (GE, # BR-1008-39) to capture anti-IL2Rγ monoclonal antibodies.
The dissociation of monoclonal antibody bound IL2Rγ reagents were monitored for 8-10 minutes in HBS-ET running buffer. Kinetic association (kₐ) and dissociation (kd) rate constants were determined by fitting the real-time sensorgrams to a 1:1 binding model using Scrubber 2.0c curve fitting software. Binding dissociation equilibrium constants (KD) and dissociative half-lives (t_{1/2}) were calculated from the kinetic rate constants as: […]

[2] = biological target: T2, Macaca fascicularis IL2Rγ extracellular domain expressed with a C-terminal myc-myc-hexahistidine tag (Macaca fascicularis); assay: SPR Biacore 4000, mAb captured by anti-hFc, 37C, dissociation in PBS-T pH 6.0
T2 construct: also called mfIL-2Rg-MMH; mfIL-2RG-MMH
T2 chain: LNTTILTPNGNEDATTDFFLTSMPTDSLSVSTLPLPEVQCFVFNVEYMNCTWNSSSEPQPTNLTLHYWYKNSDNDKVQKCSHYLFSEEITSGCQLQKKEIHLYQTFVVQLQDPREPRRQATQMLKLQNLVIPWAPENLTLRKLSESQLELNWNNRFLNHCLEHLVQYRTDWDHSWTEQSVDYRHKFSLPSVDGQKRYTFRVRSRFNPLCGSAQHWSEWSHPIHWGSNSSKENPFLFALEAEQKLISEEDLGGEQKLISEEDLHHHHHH
Method in brief: (§1)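 kd obtained by fitting real-time sensorgrams to a 1:1 binding model, with dissociation monitored for 6 minutes in PBS-T at pH 6.0 or 7.4, 25° C or 37° C. Antibodies bearing human IgG4 Fc were captured via immobilized mouse anti-human Fc; analyte was MMH-tagged IL2Rγ.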

[3] = biological target: T2, Macaca fascicularis IL2Rγ extracellular …; assay: SPR Biacore 4000, mAb captured by anti-hFc, HBS-ET, 25C
Method in brief: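 Surface plasmon resonance with anti-hFc-captured antibodies in pH 7.4 HEPES-buffered saline containing EDTA and Tween-20; kinetic constants from a 1:1 model.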

[4] = biological target: T2, Macaca fascicularis IL2Rγ extracellular …; assay: SPR Biacore 4000, mAb captured by anti-hFc, 37C, dissociation in PBS-T pH 7.4
Method in brief: as §1

B1: H4H12926P2 (antibody, human IgG4 S228P, kappa, V domains shown)
VH: QVQLQQSGPGLVKPSQTLSLTCAISGDSVSSNIAAWNWIRLSPSRGLEWLGRTFFRSTWFYDYSLSVKGRITINPDTSKNQFSLHLNSVTPEDAAVYYCARTGRRWSLDYWGQGTLVTVSS
VL: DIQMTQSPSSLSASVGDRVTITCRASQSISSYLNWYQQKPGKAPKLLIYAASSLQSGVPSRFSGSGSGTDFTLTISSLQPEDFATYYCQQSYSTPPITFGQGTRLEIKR
notes: anti-IL2Rγ monoclonal antibody expressed with human IgG4 Fc
Q: Which Kd [1] does the source give for B1 here?
A: Its Kd is 132 nM.

Q: What about the koff [1] of the same binder?
A: Its koff is 0.0264 s⁻¹.

Q: What about the kon [1] of the same binder?
A: The kon was 200000 M⁻¹ s⁻¹.

Q: And the t1/2 [1]?
A: Its t1/2 is 24 s.

Q: What about the “100 nM Ag Bound (RU)” value [2] of the same binder?
A: Its value is 20 RU.

Q: And the koff [2]?
A: Its koff is 0.0303 s⁻¹.

Q: What about the t1/2 [2] of the same binder?
A: Its t1/2 is 24 s.

Q: And the “100 nM Ag Bound” value [3]?
A: Its value is 11 RU.

Q: What about the Kd [3] of the same binder?
A: Its Kd is 107 nM.

Q: What about the koff [3] of the same binder?
A: The koff was 0.0261 s⁻¹.

Q: What about the kon [3] of the same binder?
A: The kon was 244000 M⁻¹ s⁻¹.

Q: And the t1/2 [3]?
A: Its t1/2 is 24 s.

Q: What about the “100 nM Ag Bound (RU)” value [4] of the same binder?
A: The value was 25 RU.

Q: What about the koff [4] of the same binder?
A: The koff was 0.0279 s⁻¹.

Q: What about the t1/2 [4] of the same binder?
A: The t1/2 was 24 s.

B2: H4H12927P2 (antibody, human IgG4 S228P, kappa, V domains shown)
VH: EVQLVESGGGVVRPGGSLRLSCATSGFTFDDYGMSWVRQVPGKGLEWVSSVNRNGGTTDYADSVKGRFTISRDNAKRSLFLQMNSLRAEDTALYHCATGELFFDYWGQGTLVTVSS
VL: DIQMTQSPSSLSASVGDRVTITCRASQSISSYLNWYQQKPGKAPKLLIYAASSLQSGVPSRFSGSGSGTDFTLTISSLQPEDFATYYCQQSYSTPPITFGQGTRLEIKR
notes: as for B1
Q: Which Kd [1] does the source give for B2 here?
A: The Kd was 96.5 nM.

Q: What about the koff [1] of the same binder?
A: The koff was 0.00555 s⁻¹.

Q: And the kon [1]?
A: Its kon is 57500 M⁻¹ s⁻¹.

Q: And the t1/2 [1]?
A: Its t1/2 is 126 s.

Q: What about the “100 nM Ag Bound (RU)” value [2] of the same binder?
A: Its value is 22 RU.

Q: What about the koff [2] of the same binder?
A: The koff was 0.0129 s⁻¹.

Q: What about the t1/2 [2] of the same binder?
A: The t1/2 was 54 s.

Q: What about the “100 nM Ag Bound” value [3] of the same binder?
A: The value was 12 RU.

Q: And the Kd [3]?
A: Its Kd is 238 nM.

Q: And the koff [3]?
A: Its koff is 0.00686 s⁻¹.

Q: What about the kon [3] of the same binder?
A: The kon was 28800 M⁻¹ s⁻¹.

Q: And the t1/2 [3]?
A: The t1/2 was 102 s.

Q: What about the “100 nM Ag Bound (RU)” value [4] of the same binder?
A: The value was 27 RU.

Q: What about the koff [4] of the same binder?
A: The koff was 0.00596 s⁻¹.

Q: And the t1/2 [4]?
A: Its t1/2 is 114 s.
